Earlier results, collected in PMC4083100.

Molecular target: FcεRI (Homo sapiens) (UniProt P12319)
Chain of UniProt P12319 (P12319 26-257): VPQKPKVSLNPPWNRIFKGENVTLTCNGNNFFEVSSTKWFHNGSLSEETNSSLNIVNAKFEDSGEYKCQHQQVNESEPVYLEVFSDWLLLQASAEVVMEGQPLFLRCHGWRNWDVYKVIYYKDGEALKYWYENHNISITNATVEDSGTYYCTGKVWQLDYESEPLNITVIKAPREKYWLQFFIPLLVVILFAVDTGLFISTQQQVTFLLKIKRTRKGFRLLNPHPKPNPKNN

Kd: < 1 nM
Substance: IgE (from UniProt P01854)
